Experimental data reported in patent publication US20250122278A1, “ANTI-INTERLEUKIN-9 ANTIBODY AND USE THEREOF” (GUANGDONG KEGUANDA PHARMACEUTICAL TECHNOLOGY CO., LTD., priority 2022, published 2025).

Assays:
[1] = system: bleomycin mouse model of pulmonary fibrosis; test: Bleomycin mouse pulmonary fibrosis model; assay type: in vivo; conditions: bleomycin model, 21 d
Method: (§1) 6 to 8-week-old male C57BL/6J mice (purchased from Guangdong Sijiajingda Biotechnology Co., Ltd., license No.: SCXK (Guangdong) 2020-0052) were grouped, modeled, and administered according to the protocols shown in Tables 6 and 7 below. The modeling with bleomycin (Nippon Kayaku, 15 mg powder, and dose: 1.5 mg/kg) and silica (SiO2, sigma, USA, S5631-500 g, and dose: 2.5 mg/mouse) was started on day 0 (DO). The administration was started on day 1 (D1), and normal saline was adopted as a solvent for an antibody. A positive drug pirfenidone (Beijing Kangdini Pharmaceutical Co., Ltd., 100 mg capsule) was adopted in a positive control group, and the humanized antibody hu.CA1 (VH1−VL2) of the present application was adopted in an anti-IL-9 antibody group.
(§2) A body weight of each mouse was measured every day. After the bleomycin model group was administered for 21 d and the silica model group was administered for 30 d, mice were sacrificed to collect lung tissues. The lung tissues each were stained to detect pathological changes in the lung tissues. Specifically, a degree of alveolar inflammation was detected through HE staining (an HE staining kit was purchased from Shanghai Beyotime Biotechnology, C0105M). A degree of pulmonary fibrosis was detected through Masson staining (a Masson staining kit was purchased from Nanjing Jiancheng Institute of Biological Engineering, D026-1-2). Scoring criteria for the HE staining and Masson staining were shown in Table 8 and Table 9 below, respectively (as shown in references: Matute-Bello G, Downey G, Moore B B, et al. An official American Thoracic Society workshop report: features and measurements of experimental acute lung injury in animals. Am J Respir Cell Mol Biol. 2011; 44 (5): 725-738. doi: 10.1165/rcmb.2009-0210ST and Lee Hyun Ju, Goo Jin Mo, Kim Na Ra et al. Semiquantitative measurement of murine bleomycin-induced lung fibrosis in in vivo and postmortem conditions using microcomputed tomography: correlation with pathologic scores—initial results. [J].Invest Radiol, 2008, 43: 453-60).

[2] = system: silica mouse model of pulmonary fibrosis; test: Silica mouse pulmonary fibrosis model; assay type: in vivo, C57BL/6J mice; conditions: 30 d
Method: as §1, §2

IL-9 = biological target: T1, IL-9 (Homo sapiens, UniProt P15248); test: ELISA binding of humanized antibodies to the target antigen; conditions: ELISA of culture supernatant of 293F cells, control chimeric antibody CA1
T1 construct: pcDNA3.4-IL9 (19-144)-His (P15248); His (C); made in house; host or cells: 293F cells (transient transfection)
Method: ELISA was conducted according to a standard protocol to determine the affinity of a purified antibody for the IL-9-His recombinant protein. In short, the IL-9-His recombinant protein was diluted with sterile PBS and added at 100 μL/well to a 96-well plate. The plate was incubated at 4° C. overnight and then blocked with a blocking buffer. 100 μL of a purified anti-IL-9 antibody serially diluted was added to the plate, and the plate was incubated for 1 h at room temperature. PBS was added to a control well. The plate was washed with PBST 3 times. Then 100 μL of horseradish peroxidase (HRP)-labeled anti-mouse IgG H&L (BIODRAGON, CAT #BF03001) was added, and the plate was incubated for 1 h at room temperature. The plate was washed with PBST 3 times. Then a chromogenic reaction was conducted with a 3,3′,5,5′-tetramethylbenzidine (TMB) chromogenic solution at room temperature. An OD value in each well was read by a microplate reader. Data was processed with PRISM GraphPad, and curves were plotted. The EC50 value for each candidate antibody was calculated.
Humanized antibody expression vectors carrying a designed heavy-chain or light-chain sequence were transiently transfected into 293F cells in pairs, and then a resulting culture supernatant was collected. According to a standard protocol (with reference to part 5.1 in Example 1), with a human-mouse chimeric antibody CA1 constructed with VH and VL of the original murine antibody as a control, the binding of a humanized antibody to a target antigen was detected by ELISA. The method for ELISA was the same as described in 5.1 of Example 1. […] In the follow-up experiments, the four combinations of VH1−VL2, VH1−VL4, VH2−VL4, and VH3−VL4 (hu.CA1 to hu.CA4) were taken as examples for antibody purification and function testing. […]

[3] = antibody 100 μg i.p. every other day, pirfenidone 300 mg/kg intragastric daily

T1 sequence (P15248 19-144): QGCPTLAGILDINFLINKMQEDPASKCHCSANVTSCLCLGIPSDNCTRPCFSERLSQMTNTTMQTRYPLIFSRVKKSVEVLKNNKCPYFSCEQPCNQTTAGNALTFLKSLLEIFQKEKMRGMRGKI

## Cc1ccc(=O)n(-c2ccccc2)c1 [pirfenidone, reference compound]
[1]
  collagen fibers and fibrosis regions of lung tissues (Masson staining): significantly reduced
[1]; HE staining, FIG. 9B
  inflammation score: significantly reduce an inflammation score
[1]; Masson staining, FIG. 10B
  fibrosis score: significantly reduce a fibrosis score
[1]; [3]
  lung tissue structures (HE staining): improved
[2]
  collagen fibers and fibrosis regions of lung tissues (Masson staining): significantly reduced
[2]; HE staining, FIG. 11B
  inflammation score: significantly reduce an inflammation score
[2]; Masson staining, FIG. 12B
  fibrosis score: reduce a fibrosis score
[2]; [3]
  lung tissue structures (HE staining): improved

B1: VH3+VL4: humanized antibody, VH SEQ ID NO: 28, VL SEQ ID NO: 33 (antibody, V domains shown)
VH: EVQLVQSGAEVMKPGASVKVSCKATGYTFTGYWIEWVRLAPGQGLEWMGEILPGSGSTNYNQKLQGRVTFTADTSTNTAYMELRSLRSDDTAIYYCARRTYYYGIPEDYWGQGTLVTVSS
VL: DIVMTQSPKFLSASVGDRVTITCKASQNVGTNVAWHQQKPGQSPKPLIYSASYRYSGVPSRFTGSGSGTDFTLTISNLQPEDFAEYFCQQYNSYPLTFGAGTKLEIK
IL-9
  binding to IL-9: bind to IL-9 with high affinity

B2: VH2+VL1: humanized antibody, VH SEQ ID NO: 27, VL SEQ ID NO: 30 (antibody, V domains shown)
VH: EVQLVQSGAEVMKPGASVKVSCKATGYTFTGYWIEWVRLAPGQGLEWMGEILPGSGSTNYNQKFQGRVTFTADTSTNTAYMELSSLRSEDTAIYYCARRTYYYGIPEDYWGQGTLVTVSS
VL: DIVMTQSQKFLSTSVGDRVTITCRASQNVGTNVAWHQQKPGQSPKPLIYSASYRYSGVPSRFTGSGSGTDFTLTISNLQPEDFAEYFCQQYNSYPLTFGAGTKLEIK
IL-9
  binding to IL-9: bind to IL-9 with high affinity

B3: VH4+VL3: humanized antibody, VH SEQ ID NO: 29, VL SEQ ID NO: 32 (antibody, V domains shown)
VH: EVQLKQSGAEVMKPGASVKLSCKATGYTFTGYWIEWVKLAPGHGLEWIGEILPGSGSTNYNEEFQGRVTFTADTSSNTAYMELSRLRSDDTAIYYCARRTYYYGIPEDYWGQGTLVTVSS
VL: DIVMTQSPKFVSTSVGDRVTITCRASQNVGTNVAWHQQKPGQSPKPLIYSASYRYSGVPSRFTGSGSGTDFTLTISNLQPEDFAEYFCQQYNSYPLTFGAGTKLEIK
IL-9
  binding to IL-9: bind to IL-9 with high affinity

B4: VH3+VL1: humanized antibody, VH SEQ ID NO: 28, VL SEQ ID NO: 30 (antibody, V domains shown)
VH: EVQLVQSGAEVMKPGASVKVSCKATGYTFTGYWIEWVRLAPGQGLEWMGEILPGSGSTNYNQKLQGRVTFTADTSTNTAYMELRSLRSDDTAIYYCARRTYYYGIPEDYWGQGTLVTVSS
VL: DIVMTQSQKFLSTSVGDRVTITCRASQNVGTNVAWHQQKPGQSPKPLIYSASYRYSGVPSRFTGSGSGTDFTLTISNLQPEDFAEYFCQQYNSYPLTFGAGTKLEIK
IL-9
  binding to IL-9: bind to IL-9 with high affinity

B5: VH3+VL3: humanized antibody, VH SEQ ID NO: 28, VL SEQ ID NO: 32 (antibody, V domains shown)
VH: EVQLVQSGAEVMKPGASVKVSCKATGYTFTGYWIEWVRLAPGQGLEWMGEILPGSGSTNYNQKLQGRVTFTADTSTNTAYMELRSLRSDDTAIYYCARRTYYYGIPEDYWGQGTLVTVSS
VL: DIVMTQSPKFVSTSVGDRVTITCRASQNVGTNVAWHQQKPGQSPKPLIYSASYRYSGVPSRFTGSGSGTDFTLTISNLQPEDFAEYFCQQYNSYPLTFGAGTKLEIK
IL-9
  binding to IL-9: bind to IL-9 with high affinity

B6: VH2+VL4: humanized antibody, VH SEQ ID NO: 27, VL SEQ ID NO: 33 (antibody, V domains shown)
VH: EVQLVQSGAEVMKPGASVKVSCKATGYTFTGYWIEWVRLAPGQGLEWMGEILPGSGSTNYNQKFQGRVTFTADTSTNTAYMELSSLRSEDTAIYYCARRTYYYGIPEDYWGQGTLVTVSS
VL: DIVMTQSPKFLSASVGDRVTITCKASQNVGTNVAWHQQKPGQSPKPLIYSASYRYSGVPSRFTGSGSGTDFTLTISNLQPEDFAEYFCQQYNSYPLTFGAGTKLEIK
IL-9
  binding to IL-9: bind to IL-9 with high affinity

B7: VH1+VL1: humanized antibody, VH SEQ ID NO: 26, VL SEQ ID NO: 30 (antibody, V domains shown)
VH: EVQLKQSGAEVMKPGASVKVSCKATGYTFTGYWIEWVRLAPGHGLEWMGEILPGSGSTNYNQKFQGRVTFTADTSINTAYMELSRLRSDDTAIYYCARRTYYYGIPEDYWGQGTLVTVSS
VL: DIVMTQSQKFLSTSVGDRVTITCRASQNVGTNVAWHQQKPGQSPKPLIYSASYRYSGVPSRFTGSGSGTDFTLTISNLQPEDFAEYFCQQYNSYPLTFGAGTKLEIK
IL-9
  binding to IL-9: bind to IL-9 with high affinity

B8: VH4+VL1: humanized antibody, VH SEQ ID NO: 29, VL SEQ ID NO: 30 (antibody, V domains shown)
VH: EVQLKQSGAEVMKPGASVKLSCKATGYTFTGYWIEWVKLAPGHGLEWIGEILPGSGSTNYNEEFQGRVTFTADTSSNTAYMELSRLRSDDTAIYYCARRTYYYGIPEDYWGQGTLVTVSS
VL: DIVMTQSQKFLSTSVGDRVTITCRASQNVGTNVAWHQQKPGQSPKPLIYSASYRYSGVPSRFTGSGSGTDFTLTISNLQPEDFAEYFCQQYNSYPLTFGAGTKLEIK
IL-9
  binding to IL-9: bind to IL-9 with high affinity

B9: VH2+VL3: humanized antibody, VH SEQ ID NO: 27, VL SEQ ID NO: 32 (antibody, V domains shown)
VH: EVQLVQSGAEVMKPGASVKVSCKATGYTFTGYWIEWVRLAPGQGLEWMGEILPGSGSTNYNQKFQGRVTFTADTSTNTAYMELSSLRSEDTAIYYCARRTYYYGIPEDYWGQGTLVTVSS
VL: DIVMTQSPKFVSTSVGDRVTITCRASQNVGTNVAWHQQKPGQSPKPLIYSASYRYSGVPSRFTGSGSGTDFTLTISNLQPEDFAEYFCQQYNSYPLTFGAGTKLEIK
IL-9
  binding to IL-9: bind to IL-9 with high affinity

B10: VH1+VL3: humanized antibody, VH SEQ ID NO: 26, VL SEQ ID NO: 32 (antibody, V domains shown)
VH: EVQLKQSGAEVMKPGASVKVSCKATGYTFTGYWIEWVRLAPGHGLEWMGEILPGSGSTNYNQKFQGRVTFTADTSINTAYMELSRLRSDDTAIYYCARRTYYYGIPEDYWGQGTLVTVSS
VL: DIVMTQSPKFVSTSVGDRVTITCRASQNVGTNVAWHQQKPGQSPKPLIYSASYRYSGVPSRFTGSGSGTDFTLTISNLQPEDFAEYFCQQYNSYPLTFGAGTKLEIK
IL-9
  binding to IL-9: bind to IL-9 with high affinity
